Substitutions are numbered along the chain they refer to. Names may count otherwise.

By EC50 is commonly meant the concentration giving half of the maximal effect. As a reminder, the Kd is a measure of binding affinity in units of concentration. Read a low Kd as tighter binding. As a reminder, the kon is the rate constant with which the complex forms. A lower kon goes with slow association.

In experiment [1] the target is T1, Human IL-1β protein (Sino Biological, Cat #10139) (human, UniProt P01584 117-269). In words: cell-based or functional assay.
Experiment [2] addresses T1, Human IL-1β protein (Sino Biological, …). In words: ELISA, hIL-1β protein coated, anti-human Fc-HRP, OD450. For orientation: An ELISA detects its analyte on a solid surface through an enzyme-linked reagent.
Experiment [3] deals with T2, human PD-L1 expressed on cells (human, UniProt Q9NZQ7 19-290). In words: cell-based or functional assay.
Experiment [4] addresses T3, hPD-L1 (Acro Biosystems, PD1-H5229) (human, UniProt Q9NZQ7 19-238).
T3 construct: also called human PD-L1; hPD-L1 protein
Put plainly: ELISA, hPD-L1 coated, anti-human Fc-HRP, OD450.

The target in experiment [5] is T2, human PD-L1 expressed on cells. Put plainly: flow cytometry on 293T-PD-L1-CD3L cells, Mean FITC-A as printed. In general terms: A flow cytometer gives signals particle by particle.
In experiment [6] the target is T4, human PD-L1-His (human, UniProt Q9NZQ7 19-238, limits assumed).
T4 construct: not shown: His tag
In words: ELISA, human PD-L1 coated, OD450.

The target in experiment [7] is T4, human PD-L1-His. Put plainly: ELISA, human PD-L1-His coated, anti-human IgG-HRP, OD450.
Experiment [8] concerns the target T5, human PD-L1-Fc (human, UniProt Q9NZQ7 19-239).
T5 construct: also called hPD-L1-Fc; human PD-L1-Fc (Sino Biological, 70110-D02H); not shown: Fc part
In words: BLI; against L-CDR2-WT. (Biolayer interferometry detects binding as a change in optical thickness at a sensor tip.)

For experiment [9], the target named is T5, human PD-L1-Fc. In words: BLI; PD-L1-Fc loaded on the sensor, scFv in solution.

B1: ACZ885 (antibody, V domains shown)
VH: QVQLVESGGGVVQPGRSLRLSCAASGFTFSVYGMNWVRQAPGKGLEWVAIIWYDGDNQYYADSVKGRFTISRDNSKNTLYLQMNGLRAEDTAVYYCARDLRTGPFDYWGQGTLVTVSS
VL: EIVLTQSPDFQSVTPKEKVTITCRASQSIGSSLHWYQQKPDQSPKLLIKYASQSFSGVPSRFSGSGSGTDFTLTINSLEAEDAAAYYCHQSSSLPFTFGPGTKVDIK
notes: Monoclonal anti-IL-1β antibody; also called Canakinumab
Regarding B1, in experiment [1], the “IC50, SEAP at OD620, HEK293-CD40L reporter cells stimulated with human IL-1β” value was 294 pM. The molecule further came in with an EC50 in [2] of 11.3 pM.

B2: IgG-scFv-ACZ885-AM4B6 (bispecific antibody)
heavy: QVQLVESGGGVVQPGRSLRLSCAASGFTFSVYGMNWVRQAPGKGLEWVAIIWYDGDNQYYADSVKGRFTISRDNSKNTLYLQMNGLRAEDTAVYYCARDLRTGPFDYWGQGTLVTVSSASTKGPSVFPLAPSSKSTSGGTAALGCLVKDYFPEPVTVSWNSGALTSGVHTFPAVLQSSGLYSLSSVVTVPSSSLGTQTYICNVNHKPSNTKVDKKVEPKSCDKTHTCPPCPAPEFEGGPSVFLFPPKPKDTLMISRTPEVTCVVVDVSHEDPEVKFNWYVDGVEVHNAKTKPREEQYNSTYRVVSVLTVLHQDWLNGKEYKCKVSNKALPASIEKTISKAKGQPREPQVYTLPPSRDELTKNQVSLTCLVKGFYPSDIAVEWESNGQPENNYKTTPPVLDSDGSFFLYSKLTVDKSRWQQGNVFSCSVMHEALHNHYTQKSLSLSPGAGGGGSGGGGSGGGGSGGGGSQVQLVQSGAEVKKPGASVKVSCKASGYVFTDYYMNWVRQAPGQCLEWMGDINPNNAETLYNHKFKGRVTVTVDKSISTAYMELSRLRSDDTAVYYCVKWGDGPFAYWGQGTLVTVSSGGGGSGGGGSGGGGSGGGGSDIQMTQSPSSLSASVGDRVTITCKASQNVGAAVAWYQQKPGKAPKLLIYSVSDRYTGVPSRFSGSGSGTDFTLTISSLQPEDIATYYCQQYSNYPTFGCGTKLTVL
light: EIVLTQSPDFQSVTPKEKVTITCRASQSIGSSLHWYQQKPDQSPKLLIKYASQSFSGVPSRFSGSGSGTDFTLTINSLEAEDAAAYYCHQSSSLPFTFGPGTKVDIKRTVAAPSVFIFPPSDEQLKSGTASVVCLLNNFYPREAKVQWKVDNALQSGNSQESVTEQDSKDSTYSLSSTLTLSKADYEKHKVYACEVTHQGLSSPVTKSFNRGEC
notes: Anti-IL-1β IgG (Canakinumab) with the AM4B6 scFv on the C-terminus of the heavy chain
For B2, the “IC50 (so in the source), luminescence (axis printed OD450), 293T-PD-L1-CD3L cells with Jurkat-NFAT-Luc-PD1 cells” value in experiment [3] is ~1290 pM. In addition, in [1], the “IC50, SEAP at OD620, HEK293-CD40L reporter cells stimulated with human IL-1β” value was determined as 346 pM. For the same molecule, the half-maximal effective concentration (EC50) worked out at 36.3 pM in experiment [4], 18.2 pM in experiment [2] and 1510 pM in experiment [5].

B3: Hu4B6_HdLa (antibody, human IgG1, V domains shown)
VH: QVQLVQSGAEVKKPGASVKVSCKASGYVFTDYYMNWVRQAPGQSLEWMGDINPNNGGTSYNHKFKGRVTVTVDKSISTAYMELSRLRSDDTAVYYCVKWGDGPFAYWGQGTLVTVSS
VL: DIQMTQSPSSLSASVGDRVTITCKASQNVGAAVAWYQQKPGKAPKLLIYSASNRYTGVPSRFSGSGSGTDFTLTISSLQPEDIATYYCQQYSNYPTFGQGTKLEIK
In the case of B3, the EC50 was determined as 347 pM in experiment [6] and 1040 pM in experiment [7].

B4: Hu4B6_HgLa (antibody, V domains shown)
VH: B3 VH with G56A
VL: B3 VL
notes: Hu4B6_Hd with G55A, paired with Hu4B6_La
For B4, the midpoint of the response in experiment [6], the EC50, lay at 407 pM.

B5: 4B6 scFv variant L-CDR2-1 (scFv)
scFv: DIQMTQSPSSLSASVGDRVTITCKASQNVGAAVAWYQQKPGKAPKLLIYSNSHRYTGVPSRFSGSGSGTDFTLTISSLQPEDIATYYCQQYSNYPTFGQGTKLEIKGGGGSGGGGSGGGGSQVQLVQSGAEVKKPGASVKVSCKASGYVFTDYYMNWVRQAPGQSLEWMGDINPNNAGTSYNHKFKGRVTVTVDKSISTAYMELSRLRSDDTAVYYCVKWGDGPFAYWGQGTLVTVSS
notes: also called 4B6-L-CDR2-1
As to B5, the Fold increase in [8] came out at 3.42 fold. Also, in [9], the equilibrium dissociation constant (Kd) was 8060 pM and the on-rate constant (kon) came to 46800 M⁻¹ s⁻¹.

B6: 4B6 scFv variant L-CDR2-3 (scFv)
scFv: B5 scFv with N51V, H53D
notes: also called 4B6-L-CDR2-3
In [8], B6 returned a Fold increase of 6.32 fold. In [9], this molecule came in with a Kd of 4370 pM and a kon of 124000 M⁻¹ s⁻¹.

B7: 4B6 scFv variant L-CDR2-2 (scFv)
scFv: B5 scFv with N51R, H53V
notes: also called 4B6-L-CDR2-2
As for B7, the Fold increase in experiment [8] turned out to be 8.26 fold. In [9], this molecule gave a dissociation constant Kd of 3340 pM and a kon of 162000 M⁻¹ s⁻¹.
